The values below come from patent US20110142868A1 (CHIRALIX B V, published 2011).

Numbered stars: 1 amine (or outer) side, 2 acyl side, 3 side chain; on linkers, the order of the positions; unused ones are H or OH. Square brackets hold non-standard residues; d marks the D form. Ends that are not written are not given here. * marks the point of attachment. O(CA) = ornithine chloroamidine, N=C(CCl)NCCC[C@H](N[*:1])C(=O)[*:2]; Orn(fluoroacetimidoyl) = N=C(CF)NCCC[C@H](N)C(=O)O; Moc = COC(=O)*

Some targets named below: caspase-3; creatine kinase; transglutaminase.
Holding throughout (assay): cell-based or functional assay
Experiment [1] concerns the target T1, recombinant human PAD2 (human, UniProt Q9Y2J8 1-665).
Experiment [2] concerns the target T2, recombinant human PAD4 (human, UniProt Q9UM07 1-663).
The target in experiment [3] is T1, recombinant human PAD2. The source holds these as a separate data set.
Experiment [4] addresses T2, recombinant human PAD4. This is another data set of the same source.
Experiment [5] has as its target T1, recombinant human PAD2. The source holds these as a separate data set.
In experiment [6] the target is T2, recombinant human PAD4. This is another data set of the same source.
In experiment [7] the target is human N(G),N(G)-dimethyl-L-arginine dimethylaminohydrolase isotype 1 (human, UniProt O94760 1-285).
Chain of human N(G),N(G)-dimethyl-L-arginine dimethylaminohydrolase isotype 1 (O94760 whole entry): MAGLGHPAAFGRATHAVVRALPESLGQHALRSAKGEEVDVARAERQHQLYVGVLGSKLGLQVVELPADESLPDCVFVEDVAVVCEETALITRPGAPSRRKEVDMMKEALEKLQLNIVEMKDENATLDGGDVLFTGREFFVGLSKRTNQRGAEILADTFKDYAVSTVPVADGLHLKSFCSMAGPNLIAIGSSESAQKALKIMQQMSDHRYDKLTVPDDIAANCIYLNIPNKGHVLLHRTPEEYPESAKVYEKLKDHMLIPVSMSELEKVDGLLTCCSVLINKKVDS
A further experiment deals with T3, papain (UniProt P00784 134-345).
T3 sequence (looked up): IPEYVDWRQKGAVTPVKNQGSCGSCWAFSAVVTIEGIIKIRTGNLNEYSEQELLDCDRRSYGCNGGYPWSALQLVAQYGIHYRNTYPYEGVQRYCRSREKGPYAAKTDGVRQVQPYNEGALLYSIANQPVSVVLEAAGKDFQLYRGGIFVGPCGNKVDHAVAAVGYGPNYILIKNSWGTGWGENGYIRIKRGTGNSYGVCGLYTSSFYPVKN

For experiment [8], the target named is T1, recombinant human PAD2. The source holds these as a separate data set.
Experiment [9] addresses T2, recombinant human PAD4. The source holds these as a separate data set.
Experiment [10] addresses T1, recombinant human PAD2. This is another data set of the same source.
The target in experiment [11] is T2, recombinant human PAD4. The source holds these as a separate data set.

T2 sequence (Q9UM07 whole entry): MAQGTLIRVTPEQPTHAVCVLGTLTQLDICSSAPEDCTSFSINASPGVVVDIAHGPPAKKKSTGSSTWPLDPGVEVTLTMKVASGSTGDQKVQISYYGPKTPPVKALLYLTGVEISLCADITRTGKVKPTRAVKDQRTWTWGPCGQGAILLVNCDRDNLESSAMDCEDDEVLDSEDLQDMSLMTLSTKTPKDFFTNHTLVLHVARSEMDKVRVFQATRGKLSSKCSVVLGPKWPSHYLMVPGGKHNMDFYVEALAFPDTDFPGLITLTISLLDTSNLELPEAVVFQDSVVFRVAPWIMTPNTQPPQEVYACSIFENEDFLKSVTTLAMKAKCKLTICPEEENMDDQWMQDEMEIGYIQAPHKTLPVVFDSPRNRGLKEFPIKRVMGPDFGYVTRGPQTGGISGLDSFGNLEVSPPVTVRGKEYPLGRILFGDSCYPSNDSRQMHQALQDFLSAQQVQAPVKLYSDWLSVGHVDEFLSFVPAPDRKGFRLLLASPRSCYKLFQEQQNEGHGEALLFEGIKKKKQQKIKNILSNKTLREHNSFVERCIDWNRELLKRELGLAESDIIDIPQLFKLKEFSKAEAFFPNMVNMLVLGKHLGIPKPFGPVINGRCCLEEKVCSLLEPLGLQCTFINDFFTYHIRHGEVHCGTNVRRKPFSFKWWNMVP
T1 sequence (Q9Y2J8 whole entry): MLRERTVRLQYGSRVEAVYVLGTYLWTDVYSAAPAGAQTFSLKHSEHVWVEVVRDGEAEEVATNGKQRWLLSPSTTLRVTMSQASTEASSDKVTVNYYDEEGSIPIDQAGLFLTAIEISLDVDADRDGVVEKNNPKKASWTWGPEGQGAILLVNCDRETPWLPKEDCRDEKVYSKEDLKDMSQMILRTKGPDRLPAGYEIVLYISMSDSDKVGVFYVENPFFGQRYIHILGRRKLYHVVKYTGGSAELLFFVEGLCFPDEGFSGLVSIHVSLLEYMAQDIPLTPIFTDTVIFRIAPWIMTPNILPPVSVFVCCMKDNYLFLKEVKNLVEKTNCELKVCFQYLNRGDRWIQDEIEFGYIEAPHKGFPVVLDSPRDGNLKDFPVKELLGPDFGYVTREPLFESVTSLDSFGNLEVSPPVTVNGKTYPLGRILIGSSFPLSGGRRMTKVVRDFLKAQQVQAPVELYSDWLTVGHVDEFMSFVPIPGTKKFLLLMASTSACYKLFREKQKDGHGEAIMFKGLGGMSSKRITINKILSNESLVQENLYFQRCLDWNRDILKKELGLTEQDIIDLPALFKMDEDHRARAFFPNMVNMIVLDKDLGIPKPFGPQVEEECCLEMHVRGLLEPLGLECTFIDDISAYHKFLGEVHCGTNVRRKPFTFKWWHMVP

B1: K W H O(FA) D F F (peptide)
peptide: KWH[Orn(fluoroacetimidoyl)]DFF
As for B1, the “IC50 values (µM), ABAP PAD activity assay, second round” value (shortened to “IC50 values (µM) … second round”) with recombinant human PAD2 [1] was 16 µM; in the experiment with recombinant human PAD4 [2], 161 µM.

B2: G-D-O(CA)-G-S (peptide)
peptide: GD[O(CA)]GS
For B2, the figures for the “IC50 values (µM) … second round” value with recombinant human PAD2 [1] and with recombinant human PAD4 [2] were 38 µM and 60 µM, respectively.

B3: T-D-O(CA)-G-S (peptide)
peptide: TD[O(CA)]GS
On to B3, for which the entries for the “IC50 values (µM), ABAP PAD activity assay” value in the experiment with recombinant human PAD2 [3] and with recombinant human PAD4 [4] were 34 µM and 153 µM, respectively.

B4: CXP5.2-081 (peptide)
peptide: Ac-YD[O(CA)]GS
Regarding B4, the figures for the “IC50 values (µM), colorimetric assay” value with recombinant human PAD2 [5] and in the experiment with recombinant human PAD4 [6] were 200 µM and 10 µM, respectively. Moreover, the “IC50 values (µM), hDDAH-1 activity assay” value in experiment [7] came out at 1330 µM. The “IC50 values (µM), caspase-3 activity assay” value with caspase-3 is more than 1000 µM. Further, the “IC50 values (µM), creatine kinase activity assay” value with creatine kinase came out at 1000 µM. In the experiment with transglutaminase, the “IC50 values (µM), transglutaminase activity assay” value was more than 1000 µM. In the experiment with papain, the “IC50 values (µM), papain activity assay” value was more than 2000 µM.

B5: G-S-O(FA)-D-G (peptide)
peptide: GS[Orn(fluoroacetimidoyl)]DG
Turning to B5, the figures for the “IC50 values (µM), ABAP PAD activity assay” value in the experiment with recombinant human PAD2 [3] and with recombinant human PAD4 [4] were 18 µM and 443 µM, respectively.

B6: T-D-O(FA)-G-S (peptide)
peptide: TD[Orn(fluoroacetimidoyl)]GS
For the molecule B6, the “IC50 values (µM), ABAP PAD activity assay” value with recombinant human PAD2 [3] is 19 µM; with recombinant human PAD4 [4] it was 58 µM. The “IC50 values (µM) … second round” value in the experiment with recombinant human PAD2 [1] is 49 µM; in the experiment with recombinant human PAD4 [2] it was 129 µM.

B7: G-D-O(CA)-S-G (peptide)
peptide: GD[O(CA)]SG
Take B7: the “IC50 values (µM), ABAP PAD activity assay” value is 76 µM with recombinant human PAD2 [3] and 189 µM with recombinant human PAD4 [4].

B8: S-S-O(CA)-D-G (peptide)
peptide: SS[O(CA)]DG
For B8, the “IC50 values (µM), ABAP PAD activity assay” value was 55 µM in the experiment with recombinant human PAD2 [3] and 203 µM with recombinant human PAD4 [4].

B9: G-D-O(FA)-S-G (peptide)
peptide: GD[Orn(fluoroacetimidoyl)]SG
For B9, the “IC50 values (µM), ABAP PAD activity assay” value with recombinant human PAD2 [3] was found to be 17 µM; with recombinant human PAD4 [4], 178 µM.

B10: S-S-O(FA)-D-G (peptide)
peptide: SS[Orn(fluoroacetimidoyl)]DG
As to B10, the entries for the “IC50 values (µM), ABAP PAD activity assay” value with recombinant human PAD2 [3] and with recombinant human PAD4 [4] were 14 µM and 177 µM, respectively.

B11: CXP5-101 (peptide)
peptide: Moc-TD[Orn(fluoroacetimidoyl)]GS-OMe
SMILES: COC(=O)N[C@H](C(=O)N[C@@H](CC(=O)O)C(=O)N[C@@H](CCCNC(=N)CF)C(=O)NCC(=O)N[C@@H](CO)C(=O)OC)[C@@H](C)O
As to B11, the figures for the “IC50 values (µM), colorimetric assay” value in the experiment with recombinant human PAD2 [5] and with recombinant human PAD4 [6] were 35 µM and 10 µM, respectively. The “IC50 values (µM), hDDAH-1 activity assay” value in experiment [7] is more than 2000 µM. In addition, the “IC50 values (µM), caspase-3 activity assay” value in the experiment with caspase-3 was more than 1000 µM. Besides, the “IC50 values (µM), creatine kinase activity assay” value in the experiment with creatine kinase turned out to be 780 µM. The “IC50 values (µM), transglutaminase activity assay” value with transglutaminase amounted to 600 µM. Also, in the experiment with papain, the “IC50 values (µM), papain activity assay” value is more than 2000 µM.

B12: 0743-58FA (peptide)
peptide: Ac-KFD[Orn(fluoroacetimidoyl)]DFI-NH2
SMILES: CC[C@H](C)[C@H](NC(=O)[C@H](Cc1ccccc1)NC(=O)[C@H](CC(=O)O)NC(=O)[C@H](CCCNC(=N)CF)NC(=O)[C@H](CC(=O)O)NC(=O)[C@H](Cc1ccccc1)NC(=O)[C@H](CCCCN)NC(C)=O)C(N)=O
For the molecule B12, in the experiment with recombinant human PAD2 [8], the “conversion of 0708-30 by PAD2, 10 µM inhibitor (0 µM: 68)” value amounted to 33%; the “conversion of 0708-30 by PAD2, 50 µM inhibitor (0 µM: 68)” value came out at 8%; the “conversion of 0708-30 by PAD2, 100 µM inhibitor (0 µM: 68)” value worked out at 4%. Further, in the experiment with recombinant human PAD4 [9], the “conversion of 0708-30 by PAD4, 10 µM inhibitor (0 µM: 81)” value turned out to be 38%; the “conversion of 0708-30 by PAD4, 50 µM inhibitor (0 µM: 81)” value stood at 19%; the “conversion of 0708-30 by PAD4, 100 µM inhibitor (0 µM: 81)” value was 10%. Besides, the “IC50 values (µM), colorimetric assay” value in the experiment with recombinant human PAD2 [5] was 35 µM. In addition, the “IC50 values (µM), colorimetric assay” value with recombinant human PAD4 [6] came to 6 µM. The “IC50 values (µM), hDDAH-1 activity assay” value in experiment [7] is more than 2000 µM. The “IC50 values (µM), caspase-3 activity assay” value with caspase-3 stood at 920 µM. In addition, in the experiment with creatine kinase, the “IC50 values (µM), creatine kinase activity assay” value was found to be 800 µM. Also, the “IC50 values (µM), transglutaminase activity assay” value with transglutaminase was found to be 1000 µM. In the experiment with papain, the “IC50 values (µM), papain activity assay” value is more than 2000 µM. In the experiment with recombinant human PAD2 [10], the “Inhibition of PAD2: value at 10 µM inhibitor (0 µM: 74)” value turned out to be 39%, the “Inhibition of PAD2: value at 20 µM inhibitor (0 µM: 74)” value was found to be 26%, the “Inhibition of PAD2: value at 40 µM inhibitor (0 µM: 74)” value was 15% and the “Inhibition of PAD2: value at 80 µM inhibitor (0 µM: 74)” value was found to be 9%. Further, in the experiment with recombinant human PAD4 [11], the “Inhibition of PAD4: value at 10 µM inhibitor (0 µM: 71)” value was 46%, the “Inhibition of PAD4: value at 20 µM inhibitor (0 µM: 71)” value came out at 36%, the “Inhibition of PAD4: value at 40 µM inhibitor (0 µM: 71)” value came out at 18% and the “Inhibition of PAD4: value at 80 µM inhibitor (0 µM: 71)” value stood at 13%.

B13: CXP5.2-078 (peptide)
peptide: Ac-GD[O(CA)]GS
Regarding B13, the “IC50 values (µM), colorimetric assay” value with recombinant human PAD2 [5] was more than 500 µM; with recombinant human PAD4 [6], 18 µM. Further, the “IC50 values (µM), hDDAH-1 activity assay” value in [7] is 1200 µM. The “IC50 values (µM), caspase-3 activity assay” value with caspase-3 turned out to be 1000 µM. The “IC50 values (µM), creatine kinase activity assay” value in the experiment with creatine kinase is 780 µM. Besides, in the experiment with transglutaminase, the “IC50 values (µM), transglutaminase activity assay” value amounted to 730 µM. For the same molecule, the “IC50 values (µM), papain activity assay” value with papain worked out at 1050 µM.

B14: Y-D-O(CA)-G-S (peptide)
peptide: YD[O(CA)]GS
Regarding B14, the “IC50 values (µM) … second round” value turned out to be 58 µM in the experiment with recombinant human PAD2 [1] and 44 µM with recombinant human PAD4 [2].

B15: K F D O(FA) D F I (peptide)
peptide: KFD[Orn(fluoroacetimidoyl)]DFI
Consider B15, for which the “IC50 values (µM) … second round” value with recombinant human PAD2 [1] was found to be 17 µM; in the experiment with recombinant human PAD4 [2], 122 µM.

B16: 0748-09FA (peptide)
peptide: Ac-KWH[Orn(fluoroacetimidoyl)]DFF-NH2
SMILES: CC(=O)N[C@@H](CCCCN)C(=O)N[C@@H](Cc1c[nH]c2ccccc12)C(=O)N[C@@H](Cc1c[nH]cn1)C(=O)N[C@@H](CCCNC(=N)CF)C(=O)N[C@@H](CC(=O)O)C(=O)N[C@@H](Cc1ccccc1)C(=O)N[C@@H](Cc1ccccc1)C(N)=O
In the case of B16, in the experiment with recombinant human PAD2 [8], the “conversion of 0708-30 by PAD2, 10 µM inhibitor (0 µM: 68)” value was found to be 23%; the “conversion of 0708-30 by PAD2, 50 µM inhibitor (0 µM: 68)” value worked out at 6%; the “conversion of 0708-30 by PAD2, 100 µM inhibitor (0 µM: 68)” value amounted to 5%. In the experiment with recombinant human PAD4 [9], the “conversion of 0708-30 by PAD4, 10 µM inhibitor (0 µM: 81)” value was 51%; the “conversion of 0708-30 by PAD4, 50 µM inhibitor (0 µM: 81)” value was found to be 22%; the “conversion of 0708-30 by PAD4, 100 µM inhibitor (0 µM: 81)” value is 13%. Moreover, the “IC50 values (µM), caspase-3 activity assay” value with caspase-3 was more than 1000 µM. For the same molecule, in the experiment with creatine kinase, the “IC50 values (µM), creatine kinase activity assay” value came to 1000 µM. In addition, the “IC50 values (µM), transglutaminase activity assay” value with transglutaminase is more than 1000 µM. For the same molecule, the “IC50 values (µM), papain activity assay” value with papain is more than 2000 µM. In the experiment with recombinant human PAD2 [10], the “Inhibition of PAD2: value at 10 µM inhibitor (0 µM: 76)” value was 25%, the “Inhibition of PAD2: value at 20 µM inhibitor (0 µM: 76)” value worked out at 14%, the “Inhibition of PAD2: value at 40 µM inhibitor (0 µM: 76)” value is 8% and the “Inhibition of PAD2: value at 80 µM inhibitor (0 µM: 76)” value came out at 4%. In the experiment with recombinant human PAD4 [11], the “Inhibition of PAD4: value at 10 µM inhibitor (0 µM: 67)” value worked out at 51%, the “Inhibition of PAD4: value at 20 µM inhibitor (0 µM: 67)” value came to 38%, the “Inhibition of PAD4: value at 40 µM inhibitor (0 µM: 67)” value amounted to 27% and the “Inhibition of PAD4: value at 80 µM inhibitor (0 µM: 67)” value was 18%.

B17: G-S-O(CA)-D-G (peptide)
peptide: GS[O(CA)]DG
On to B17, for which the “IC50 values (µM), ABAP PAD activity assay” value with recombinant human PAD2 [3] was 172 µM; with recombinant human PAD4 [4], 816 µM.
